The target in test [1] is T1, cynomolgus monkey CTLA-4 ECD-6×His (cynomolgus monkey).
T1 construct: extracellular domain; Bought; also called cynomoguls monkey CTLA-4.ECD-6×His
In words: ELISA, coated cynomolgus monkey CTLA-4.ECD-6×His. As to the method:
ELISA was used to test binding of anti-human CTLA-4 antibodies to human, murine and cynomolgus monkey CTLA-4 protein. A 96-well plate was coated with human CTLA-4.ECD-6×His (1.0 μg/mL), cynomoguls monkey CTLA-4.ECD-6×His (0.5 μg/mL) or mouse CTLA-4.ECD-6×His (0.5 μg/mL) at 4° C. for 16-20 hours. After 1 hour blocking with 2% BSA in DBPS, testing antibodies, as well as positive and negative control antibodies were added to the plates and incubated at room temperature for 1 hour. The binding of the antibodies to the plates were detected by HRP-conjugated goat anti-human IgG antibody (1:5000 dilution) with 1 hour incubation. The color was developed by dispensing 100 μL of TMB substrate for 8 mins, and then stopped by 100 μL of 2N HCl.
A general note: An ELISA detects its analyte on a solid surface through an enzyme-linked reagent.

Test [2] addresses T2, hCTLA4_ECD.His point mutant H39 to alanine (human, UniProt P16410 36-161).
T2 construct: extracellular domain; alanine-scan mutein, HEK293F supernatant
T2 sequence (looked up): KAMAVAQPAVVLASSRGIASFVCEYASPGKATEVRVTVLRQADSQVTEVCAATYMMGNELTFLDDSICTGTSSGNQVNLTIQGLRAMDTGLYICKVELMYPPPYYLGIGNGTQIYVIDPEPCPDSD
In words: capture ELISA, alanine scan, vs silent alanine substitutions. The method, then: (§1) In order to test how the mutations affect antibody-binding, a capture ELISA was conducted. […] After interacting with the supernatant that contains quantified CTLA4 muteins, HRP conjugated anti-His antibody (1:5000; Rockland Immunochemicals, Pottstown, Pa.) was added as detection antibody. TMB was used as substance of HRP. Absorbance was normalized according to the average of control mutants. After setting an additional cutoff to the binding fold change (<0.55), the final determined epitope residues were identified.

Test [3] concerns the target T3, hCTLA4_ECD.His point mutant Y60 to alanine (human, UniProt P16410 36-161).
T3 construct: extracellular domain; alanine-scan mutein, HEK293F supernatant
T3 sequence (looked up): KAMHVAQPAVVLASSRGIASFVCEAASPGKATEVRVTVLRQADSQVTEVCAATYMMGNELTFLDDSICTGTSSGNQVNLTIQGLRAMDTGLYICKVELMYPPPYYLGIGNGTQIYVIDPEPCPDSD
The description is as above. The method, then: as §1

Test [4] concerns the target T4, hCTLA4_ECD.His point mutant R70 to alanine (human, UniProt P16410 36-161).
T4 construct: extracellular domain; alanine-scan mutein, HEK293F supernatant
T4 sequence (looked up): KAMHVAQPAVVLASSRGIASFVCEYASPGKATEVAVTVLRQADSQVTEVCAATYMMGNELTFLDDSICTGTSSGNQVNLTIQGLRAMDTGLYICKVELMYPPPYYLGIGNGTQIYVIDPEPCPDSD
The description is as above. The method, then: as §1

For test [5], the target named is T5, hCTLA4_ECD.His point mutant V73 to alanine (human, UniProt P16410 36-161).
T5 construct: extracellular domain; alanine-scan mutein, HEK293F supernatant
T5 sequence (looked up): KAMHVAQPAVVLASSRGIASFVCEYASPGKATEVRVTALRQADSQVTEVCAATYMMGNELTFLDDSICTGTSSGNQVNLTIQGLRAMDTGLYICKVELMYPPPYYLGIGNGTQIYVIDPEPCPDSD
The description is as above. As to the method:
as §1

The target of test [6] is T6, hCTLA4_ECD.His point mutant R75 to alanine (human, UniProt P16410 36-161).
T6 construct: extracellular domain; alanine-scan mutein, HEK293F supernatant
T6 sequence (looked up): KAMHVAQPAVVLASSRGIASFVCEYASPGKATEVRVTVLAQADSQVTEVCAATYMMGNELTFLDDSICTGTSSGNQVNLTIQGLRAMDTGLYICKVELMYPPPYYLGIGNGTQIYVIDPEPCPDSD
The test is described as above. As to the method: as §1

The target in test [7] is T7, hCTLA4_ECD.His point mutant C129 to alanine (human, UniProt P16410 36-161).
T7 construct: extracellular domain; alanine-scan mutein, HEK293F supernatant
T7 sequence (looked up): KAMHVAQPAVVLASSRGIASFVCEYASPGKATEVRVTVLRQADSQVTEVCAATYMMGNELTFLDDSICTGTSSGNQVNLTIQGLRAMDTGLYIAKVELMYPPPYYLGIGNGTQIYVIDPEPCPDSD
The description is as above. As to the method: as §1

Test [8] concerns the target T8, hCTLA4_ECD.His point mutant M134 to alanine (human, UniProt P16410 36-161).
T8 construct: extracellular domain; alanine-scan mutein, HEK293F supernatant
T8 sequence (looked up): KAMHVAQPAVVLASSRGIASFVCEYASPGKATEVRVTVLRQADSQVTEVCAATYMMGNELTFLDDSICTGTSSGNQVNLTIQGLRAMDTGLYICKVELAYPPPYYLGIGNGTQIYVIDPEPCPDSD
Described as above. The method, then:
as §1

For test [9], the target named is T9, hCTLA4_ECD.His point mutant P136 to alanine (human, UniProt P16410 36-161).
T9 construct: extracellular domain; alanine-scan mutein, HEK293F supernatant
T9 sequence (looked up): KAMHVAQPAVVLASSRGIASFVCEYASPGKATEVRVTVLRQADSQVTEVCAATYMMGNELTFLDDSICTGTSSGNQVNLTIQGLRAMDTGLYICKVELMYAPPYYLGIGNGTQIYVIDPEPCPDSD
The description is as above. The method, then:
as §1

Test [10] addresses T10, human CTLA-4.ECD.hFc (human, UniProt P16410 36-161).
T10 construct: extracellular domain; also called hCTLA-4.ECD.hFc; not shown: human Fc tag (hFc)
T10 sequence (looked up): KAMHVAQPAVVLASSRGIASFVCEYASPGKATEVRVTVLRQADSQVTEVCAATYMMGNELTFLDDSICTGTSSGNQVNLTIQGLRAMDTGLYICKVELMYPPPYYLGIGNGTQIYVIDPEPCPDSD
The test is described as follows: competition ELISA, coated human CTLA-4.ECD.hFc, competitor CD86-6×His. The method, then: Plates were coated with human CTLA-4.ECD.hFc (0.5 μg/mL) at 4° C. for 16-20 hours. […] After washing three times with PBS containing 0.05% Tween 20, biotinylated anti-His tag antibody was 1:2000 diluted and added. The plates were incubated at room temperature for 1 hour. The bound ligands were detected by HRP conjugated streptavidin (1:20000). The color was developed by dispensing 100 μL of TMB substrate for 8 mins, and then stopped by 100 μL of 2N HCl.

B1: W3162_1.154.8-z35-uAb.IgG1K (antibody, V domains shown)
VH: QVQLVQSGAEVKKPGSSVKVSCKASGYTFTNYFMNWVRQAPGQGLEWMGRVDPEQGRADYAEKFKKRVTITADKSTSTAYMELSSLRSEDTAVYYCARRAMDNYGFAYWGQGTLVTVSS
VL: EIVLTQSPDFQSVTPKEKVTITCSANSALSYMYWYQQKPDQSPKLWVHGTSNLASGVPSRFSGSGSGTDFTLTINSLEAEDAATYYCHHWSNTQWTFGGGTKVEIK
notes: Humanized; label says IgG1K
A word on the EC50: it is the concentration needed to bring the measured effect to its halfway point. One may read the IC50 as the concentration at which inhibition is half-maximal. For the molecule B1, in test [1], the midpoint of the response, the EC50, lay at 0.05 nM. In addition, the Fold change worked out at 0.549 fold in test [2]; 0.24 fold in test [3]; 0.515 fold in test [4]; 0.498 fold in test [5]; 0.298 fold in [6]; 0.211 fold in test [7]. The Fold change in [8] stood at 0.455 fold; in [9], 0.155 fold. This molecule returned an IC50 in test [10] of 0.5 nM.

B2: W3162-1.146.19-z12-uAb.IgG1K (antibody, V domains shown)
VH: QVQLQESGPGLVKPSETLSLTCSVTYHTITSGYDWTWIRKPPGKGMEWIGYISYSGNTNYNPSLKSRVTISRDTSKNQFFLKLSSVTAADTAVYYCASMMVPHYYVMDAWGQGTLVTVSS
VL: DIVMTQTPLSLSVTPGQPASISCRSSQSLLNSDGNTYLYWYLQKPGQSPQLLIYLVSKLGSGVPNRFSGSGSGTDFTLKISRVEAEDVGVYYCVQGTHDPWTFGGGTKVEIK
notes: Humanized; label says IgG1K
The molecule B2 showed a half-maximal effective concentration (EC50) in test [1] of 0.05 nM. The Fold change was 0.529 fold in test [2]; 0.223 fold in test [3]; 0.507 fold in test [4]; 0.338 fold in test [5]; 0.278 fold in test [6]; 0.182 fold in [7]. The Fold change in test [8] was determined as 0.254 fold; in [9], 0.231 fold. In test [10], this molecule registered a 50% inhibitory concentration (IC50) of 0.71 nM.

The values are drawn from US20200277377A1 (WUXI BIOLOGICS SHANGHAI, published 2020).
